Experimental data as given in article PMC3505452 (Science (New York, N.Y.), 2012).
Values belong to the molecule of their own block, whether it stands above or below them.

Tests used:
UVR8^R146A (Arabidopsis) = UVR8^R146A (Arabidopsis) (UniProt Q9FN03); test: SEC
UVR8^R286A (Arabidopsis) = UVR8^R286A (Arabidopsis) (UniProt Q9FN03); test: SEC
SAXS = biological target: the molecule itself; test: SAXS
[1] = biological target: T1, UVR8 (UV … LOCUS 8), recombinant Arabidopsis, full-length wild type (Arabidopsis), Q9FN03; test: SEC-MALS; details: remark: other sources report otherwise
T1 chain: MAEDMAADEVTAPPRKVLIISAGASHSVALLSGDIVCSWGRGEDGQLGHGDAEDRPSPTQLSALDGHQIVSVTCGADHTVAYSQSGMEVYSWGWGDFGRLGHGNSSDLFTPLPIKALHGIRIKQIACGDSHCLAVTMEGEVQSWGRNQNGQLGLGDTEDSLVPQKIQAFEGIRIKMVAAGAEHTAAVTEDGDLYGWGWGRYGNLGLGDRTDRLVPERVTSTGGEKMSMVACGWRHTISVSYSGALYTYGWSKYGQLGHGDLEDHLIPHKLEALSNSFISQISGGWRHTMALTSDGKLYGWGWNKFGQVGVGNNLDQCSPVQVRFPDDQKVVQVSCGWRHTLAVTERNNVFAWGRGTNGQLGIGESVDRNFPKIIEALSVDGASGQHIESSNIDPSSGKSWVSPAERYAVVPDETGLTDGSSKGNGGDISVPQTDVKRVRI

[2] = biological target: T1, UVR8 (UV … LOCUS 8), recombinant …; test: SDS-PAGE without sample boiling; details: remark: other sources report otherwise
[3] = biological target: T1, UVR8 (UV … LOCUS 8), recombinant …; test: SAXS; details: remark: other sources report otherwise
[4] = biological target: T1, UVR8 (UV … LOCUS 8), recombinant …; test: SEC; details: remark: other sources report otherwise
SEC = biological target: the molecule itself; test: SEC
[5] = biological target: T2, UVR8^W233F (Arabidopsis), Q9FN03; test: SEC; details: remark: other sources report otherwise
T2 chain: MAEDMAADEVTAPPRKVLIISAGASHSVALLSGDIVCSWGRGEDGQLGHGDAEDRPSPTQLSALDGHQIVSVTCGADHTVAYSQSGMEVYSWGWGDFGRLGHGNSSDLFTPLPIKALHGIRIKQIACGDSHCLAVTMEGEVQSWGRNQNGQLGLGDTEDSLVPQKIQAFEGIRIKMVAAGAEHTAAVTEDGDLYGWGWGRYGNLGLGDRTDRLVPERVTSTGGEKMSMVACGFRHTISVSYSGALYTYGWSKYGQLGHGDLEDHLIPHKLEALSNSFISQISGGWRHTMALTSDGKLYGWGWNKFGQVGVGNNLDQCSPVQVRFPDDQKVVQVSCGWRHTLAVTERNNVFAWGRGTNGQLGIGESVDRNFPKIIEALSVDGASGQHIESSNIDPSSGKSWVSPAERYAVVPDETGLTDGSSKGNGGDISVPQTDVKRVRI

[6] = biological target: T2, UVR8^W233F (Arabidopsis), Q9FN03; test: SEC; details: remark: other sources report otherwise
[7] = biological target: T3, UVR8^W285A (Arabidopsis), Q9FN03; test: SAXS; details: remark: other sources report otherwise
T3 chain: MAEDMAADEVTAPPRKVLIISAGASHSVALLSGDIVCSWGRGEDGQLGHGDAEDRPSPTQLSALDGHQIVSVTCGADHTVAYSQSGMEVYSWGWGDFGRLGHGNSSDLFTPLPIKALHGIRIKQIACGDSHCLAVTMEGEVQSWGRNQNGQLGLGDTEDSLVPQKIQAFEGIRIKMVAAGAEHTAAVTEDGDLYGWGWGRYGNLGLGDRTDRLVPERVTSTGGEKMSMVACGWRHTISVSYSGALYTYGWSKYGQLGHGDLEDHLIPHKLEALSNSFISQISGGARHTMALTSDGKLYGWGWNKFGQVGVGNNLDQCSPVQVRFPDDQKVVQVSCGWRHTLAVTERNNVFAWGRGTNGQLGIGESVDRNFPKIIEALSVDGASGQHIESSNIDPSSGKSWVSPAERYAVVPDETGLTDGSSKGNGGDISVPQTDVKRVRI

stoichiometry N (UVR8^R146A (Arabidopsis)): 2
Molecule: UVR8^R146A (from UniProt Q9FN03 1-440) (natural protein)

stoichiometry N (UVR8^R286A (Arabidopsis)): 2
Molecule: UVR8^R286A (from UniProt Q9FN03 1-440) (natural protein)

B1: trypsin-treated UVR8 (crystallographic construct) (domain or fragment, Arabidopsis)
chain: MAEDMAADEVTAPPRKVLIISAGASHSVALLSGDIVCSWGRGEDGQLGHGDAEDRPSPTQLSALDGHQIVSVTCGADHTVAYSQSGMEVYSWGWGDFGRLGHGNSSDLFTPLPIKALHGIRIKQIACGDSHCLAVTMEGEVQSWGRNQNGQLGLGDTEDSLVPQKIQAFEGIRIKMVAAGAEHTAAVTEDGDLYGWGWGRYGNLGLGDRTDRLVPERVTSTGGEKMSMVACGWRHTISVSYSGALYTYGWSKYGQLGHGDLEDHLIPHKLEALSNSFISQISGGWRHTMALTSDGKLYGWGWNKFGQVGVGNNLDQCSPVQVRFPDDQKVVQVSCGWRHTLAVTERNNVFAWGRGTNGQLGIGESVDRNFPKIIEALSVDGASGQHIESSNIDPSSGKSWVSPAE
stoichiometry N (SAXS): 2

stoichiometry N [1]: 2 | stoichiometry N [2]: 2 | stoichiometry N [3]: 2 | stoichiometry N [4]: 2
B2: UVR8 (UV … LOCUS 8), recombinant Arabidopsis, full-length wild type, Q9FN03 1-440 (natural protein)
chain: MAEDMAADEVTAPPRKVLIISAGASHSVALLSGDIVCSWGRGEDGQLGHGDAEDRPSPTQLSALDGHQIVSVTCGADHTVAYSQSGMEVYSWGWGDFGRLGHGNSSDLFTPLPIKALHGIRIKQIACGDSHCLAVTMEGEVQSWGRNQNGQLGLGDTEDSLVPQKIQAFEGIRIKMVAAGAEHTAAVTEDGDLYGWGWGRYGNLGLGDRTDRLVPERVTSTGGEKMSMVACGWRHTISVSYSGALYTYGWSKYGQLGHGDLEDHLIPHKLEALSNSFISQISGGWRHTMALTSDGKLYGWGWNKFGQVGVGNNLDQCSPVQVRFPDDQKVVQVSCGWRHTLAVTERNNVFAWGRGTNGQLGIGESVDRNFPKIIEALSVDGASGQHIESSNIDPSSGKSWVSPAERYAVVPDETGLTDGSSKGNGGDISVPQTDVKRVRI

B3: UVR8^W285F (natural protein, Arabidopsis, UniProt Q9FN03 1-440, looked up)
chain: MAEDMAADEVTAPPRKVLIISAGASHSVALLSGDIVCSWGRGEDGQLGHGDAEDRPSPTQLSALDGHQIVSVTCGADHTVAYSQSGMEVYSWGWGDFGRLGHGNSSDLFTPLPIKALHGIRIKQIACGDSHCLAVTMEGEVQSWGRNQNGQLGLGDTEDSLVPQKIQAFEGIRIKMVAAGAEHTAAVTEDGDLYGWGWGRYGNLGLGDRTDRLVPERVTSTGGEKMSMVACGWRHTISVSYSGALYTYGWSKYGQLGHGDLEDHLIPHKLEALSNSFISQISGGFRHTMALTSDGKLYGWGWNKFGQVGVGNNLDQCSPVQVRFPDDQKVVQVSCGWRHTLAVTERNNVFAWGRGTNGQLGIGESVDRNFPKIIEALSVDGASGQHIESSNIDPSSGKSWVSPAERYAVVPDETGLTDGSSKGNGGDISVPQTDVKRVRI
stoichiometry N (SEC): 2

stoichiometry N [5]: 2 | stoichiometry N [6]: 2
B4: UVR8^W233F, Q9FN03 1-440 (natural protein)
chain: MAEDMAADEVTAPPRKVLIISAGASHSVALLSGDIVCSWGRGEDGQLGHGDAEDRPSPTQLSALDGHQIVSVTCGADHTVAYSQSGMEVYSWGWGDFGRLGHGNSSDLFTPLPIKALHGIRIKQIACGDSHCLAVTMEGEVQSWGRNQNGQLGLGDTEDSLVPQKIQAFEGIRIKMVAAGAEHTAAVTEDGDLYGWGWGRYGNLGLGDRTDRLVPERVTSTGGEKMSMVACGFRHTISVSYSGALYTYGWSKYGQLGHGDLEDHLIPHKLEALSNSFISQISGGWRHTMALTSDGKLYGWGWNKFGQVGVGNNLDQCSPVQVRFPDDQKVVQVSCGWRHTLAVTERNNVFAWGRGTNGQLGIGESVDRNFPKIIEALSVDGASGQHIESSNIDPSSGKSWVSPAERYAVVPDETGLTDGSSKGNGGDISVPQTDVKRVRI

stoichiometry N [7]: 2
B5: UVR8^W285A, Q9FN03 1-440 (natural protein)
chain: MAEDMAADEVTAPPRKVLIISAGASHSVALLSGDIVCSWGRGEDGQLGHGDAEDRPSPTQLSALDGHQIVSVTCGADHTVAYSQSGMEVYSWGWGDFGRLGHGNSSDLFTPLPIKALHGIRIKQIACGDSHCLAVTMEGEVQSWGRNQNGQLGLGDTEDSLVPQKIQAFEGIRIKMVAAGAEHTAAVTEDGDLYGWGWGRYGNLGLGDRTDRLVPERVTSTGGEKMSMVACGWRHTISVSYSGALYTYGWSKYGQLGHGDLEDHLIPHKLEALSNSFISQISGGARHTMALTSDGKLYGWGWNKFGQVGVGNNLDQCSPVQVRFPDDQKVVQVSCGWRHTLAVTERNNVFAWGRGTNGQLGIGESVDRNFPKIIEALSVDGASGQHIESSNIDPSSGKSWVSPAERYAVVPDETGLTDGSSKGNGGDISVPQTDVKRVRI
